This passage reports Kd and stoichiometry N results from publication PMC9700037.

Assay [1] concerns the target T1, biotin-MBP-NLRP1 wt (Avi-MBP-tev-NLRP1) (human), Q9C000.
T1 chain: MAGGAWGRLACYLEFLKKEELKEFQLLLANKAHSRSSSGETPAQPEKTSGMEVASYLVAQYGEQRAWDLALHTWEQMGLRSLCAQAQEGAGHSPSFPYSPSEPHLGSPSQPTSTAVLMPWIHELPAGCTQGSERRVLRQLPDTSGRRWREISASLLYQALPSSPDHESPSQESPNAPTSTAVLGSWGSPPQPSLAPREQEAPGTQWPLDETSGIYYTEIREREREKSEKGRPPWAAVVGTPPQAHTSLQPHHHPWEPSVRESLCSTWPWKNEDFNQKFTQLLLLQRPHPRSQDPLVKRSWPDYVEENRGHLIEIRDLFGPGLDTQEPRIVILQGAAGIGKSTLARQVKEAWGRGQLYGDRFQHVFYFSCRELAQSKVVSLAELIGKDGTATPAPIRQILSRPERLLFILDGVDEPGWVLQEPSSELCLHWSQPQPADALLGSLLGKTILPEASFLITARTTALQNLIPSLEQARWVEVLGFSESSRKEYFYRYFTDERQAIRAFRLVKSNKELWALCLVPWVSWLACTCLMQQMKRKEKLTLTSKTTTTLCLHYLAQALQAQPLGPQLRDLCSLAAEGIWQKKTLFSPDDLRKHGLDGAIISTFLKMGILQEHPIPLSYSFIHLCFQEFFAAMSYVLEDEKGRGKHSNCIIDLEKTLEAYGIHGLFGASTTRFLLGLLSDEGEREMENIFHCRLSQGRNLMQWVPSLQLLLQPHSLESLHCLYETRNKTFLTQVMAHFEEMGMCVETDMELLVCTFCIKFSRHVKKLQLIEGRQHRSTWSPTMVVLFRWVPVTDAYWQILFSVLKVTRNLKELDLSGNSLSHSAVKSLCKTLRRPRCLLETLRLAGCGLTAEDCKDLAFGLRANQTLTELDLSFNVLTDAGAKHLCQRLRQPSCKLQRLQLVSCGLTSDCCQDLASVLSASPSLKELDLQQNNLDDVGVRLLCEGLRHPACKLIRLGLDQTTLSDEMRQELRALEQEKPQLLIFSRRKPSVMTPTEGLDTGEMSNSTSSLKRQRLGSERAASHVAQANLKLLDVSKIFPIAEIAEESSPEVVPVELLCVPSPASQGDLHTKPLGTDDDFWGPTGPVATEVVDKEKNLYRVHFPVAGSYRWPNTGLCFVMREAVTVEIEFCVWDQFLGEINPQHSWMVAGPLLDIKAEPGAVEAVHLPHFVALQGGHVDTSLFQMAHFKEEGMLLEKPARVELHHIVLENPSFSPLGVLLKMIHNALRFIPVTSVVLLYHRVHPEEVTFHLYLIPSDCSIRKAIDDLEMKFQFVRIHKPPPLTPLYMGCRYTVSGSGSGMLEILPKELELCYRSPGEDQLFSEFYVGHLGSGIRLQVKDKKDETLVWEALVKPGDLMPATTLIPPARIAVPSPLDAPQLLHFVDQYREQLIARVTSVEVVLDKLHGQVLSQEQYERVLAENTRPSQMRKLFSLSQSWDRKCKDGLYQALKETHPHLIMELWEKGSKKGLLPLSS
As to the kind of experiment: SPR; NLRP1 void (high MW) fraction. Conditions: enzyme; chains chain; biotin (on the Avi tag, BirA co-expressed); remark: other sources report otherwise.

The target of assay [2] is T1, biotin-MBP-NLRP1 wt (Avi-MBP-tev-NLRP1) …. As to the kind of experiment: SPR; 20-fold excess Val-boroPro (VbP); NLRP1 multimer. Conditions: enzyme; chains chain; biotin (on the Avi tag, BirA co-expressed); remark: other sources report otherwise. A general note: In SPR one partner is held on a chip, and binding of the other changes the refractive index at the surface.
The target of assay [3] is His6-tev-DPP9, Q86TI2. As to the kind of experiment: SEC-MALS; co-eluting SEC fractions of FIIND, DPP9 and free UPA co-expressed in Sf9 and co-purified; 0.5-1.0 mg/ml, Superose 6 increase (10/300) GL, buffer A without glycerol. Conditions: remark: other sources report otherwise. Background: Size exclusion chromatography separates by hydrodynamic size, large species first.

Assay [4] addresses His6-tev-DPP9, Q86TI2. As to the kind of experiment: SEC-MALS; co-eluting SEC fractions of FIIND and DPP9 co-expressed in Sf9 WITHOUT the free UPA construct, co-purified; 0.5-1.0 mg/ml, Superose 6 increase (10/300) GL, buffer A without glycerol. Conditions: remark: other sources report otherwise.
The target in assay [5] is T2, Biotin-FLAG-NLRP1 wt (human), Q9C000.
T2 chain: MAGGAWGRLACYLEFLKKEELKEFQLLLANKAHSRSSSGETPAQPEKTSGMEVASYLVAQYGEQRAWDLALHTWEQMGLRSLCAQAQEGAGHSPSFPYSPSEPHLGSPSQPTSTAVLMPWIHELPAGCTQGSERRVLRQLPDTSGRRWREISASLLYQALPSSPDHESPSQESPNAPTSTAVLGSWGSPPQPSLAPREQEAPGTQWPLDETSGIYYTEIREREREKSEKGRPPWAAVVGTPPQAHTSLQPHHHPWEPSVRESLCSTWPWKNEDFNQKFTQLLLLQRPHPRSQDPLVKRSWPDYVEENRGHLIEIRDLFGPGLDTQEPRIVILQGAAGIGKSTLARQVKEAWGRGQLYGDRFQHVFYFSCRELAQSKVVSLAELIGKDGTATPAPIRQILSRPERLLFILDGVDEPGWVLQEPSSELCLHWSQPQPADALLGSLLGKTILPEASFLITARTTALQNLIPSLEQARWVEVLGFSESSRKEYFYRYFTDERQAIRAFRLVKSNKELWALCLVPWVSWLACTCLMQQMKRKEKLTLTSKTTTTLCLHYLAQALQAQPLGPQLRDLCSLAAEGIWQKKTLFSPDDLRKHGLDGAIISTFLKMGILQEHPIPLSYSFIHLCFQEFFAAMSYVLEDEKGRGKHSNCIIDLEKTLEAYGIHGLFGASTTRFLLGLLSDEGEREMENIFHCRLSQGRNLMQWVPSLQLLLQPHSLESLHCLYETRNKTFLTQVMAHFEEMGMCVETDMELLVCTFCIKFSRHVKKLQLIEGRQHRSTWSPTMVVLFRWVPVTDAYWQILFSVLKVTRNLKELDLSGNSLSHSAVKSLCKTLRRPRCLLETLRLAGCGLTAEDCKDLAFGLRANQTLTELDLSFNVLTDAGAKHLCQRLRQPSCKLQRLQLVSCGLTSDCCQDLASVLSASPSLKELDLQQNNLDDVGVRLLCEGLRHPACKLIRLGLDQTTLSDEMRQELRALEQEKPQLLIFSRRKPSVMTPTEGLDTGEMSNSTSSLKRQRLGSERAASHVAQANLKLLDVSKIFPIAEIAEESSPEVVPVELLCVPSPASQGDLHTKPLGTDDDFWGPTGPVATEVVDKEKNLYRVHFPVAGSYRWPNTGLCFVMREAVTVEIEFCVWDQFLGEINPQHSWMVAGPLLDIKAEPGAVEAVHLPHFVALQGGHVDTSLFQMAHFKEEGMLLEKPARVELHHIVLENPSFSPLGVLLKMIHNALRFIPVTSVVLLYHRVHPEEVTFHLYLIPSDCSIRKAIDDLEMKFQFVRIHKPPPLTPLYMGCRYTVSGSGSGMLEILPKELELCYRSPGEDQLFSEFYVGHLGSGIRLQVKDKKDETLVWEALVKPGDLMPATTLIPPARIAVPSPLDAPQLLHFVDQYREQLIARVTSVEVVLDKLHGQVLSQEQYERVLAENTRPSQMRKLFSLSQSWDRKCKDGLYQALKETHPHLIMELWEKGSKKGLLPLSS
Kind of assay: SPR; Biotin-FLAG-NLRP1 (from HEK293T) or biotin-MBP-NLRP1 (from Sf9, multimer fraction) or biotin-MBP immobilised on a streptavidin chip; DPP9 injected at 78-2500 nM, single-cycle kinetics, 10 mM Hepes pH 7.5, 150 mM NaCl, 0.5 mM TCEP, 0.05% Tween-20. Conditions: remark: other sources report otherwise.

The target of assay [6] is T1, biotin-MBP-NLRP1 wt (Avi-MBP-tev-NLRP1) …. The assay is described as above. Conditions: remark: other sources report otherwise.

B1: His6-tev-DPP9, Q86TI2 1-863 (protein)
chain: MATTGTPTADRGDAAATDDPAARFQVQKHSWDGLRSIIHGSRKYSGLIVNKAPHDFQFVQKTDESGPHSHRLYYLGMPYGSRENSLLYSEIPKKVRKEALLLLSWKQMLDHFQATPHHGVYSREEELLRERKRLGVFGITSYDFHSESGLFLFQASNSLFHCRDGGKNGFMVSPMKPLEIKTQCSGPRMDPKICPADPAFFSFINNSDLWVANIETGEERRLTFCHQGLSNVLDDPKSAGVATFVIQEEFDRFTGYWWCPTASWEGSEGLKTLRILYEEVDESEVEVIHVPSPALEERKTDSYRYPRTGSKNPKIALKLAEFQTDSQGKIVSTQEKELVQPFSSLFPKVEYIARAGWTRDGKYAWAMFLDRPQQWLQLVLLPPALFIPSTENEEQRLASARAVPRNVQPYVVYEEVTNVWINVHDIFYPFPQSEGEDELCFLRANECKTGFCHLYKVTAVLKSQGYDWSEPFSPGEDEFKCPIKEEIALTSGEWEVLARHGSKIWVNEETKLVYFQGTKDTPLEHHLYVVSYEAAGEIVRLTTPGFSHSCSMSQNFDMFVSHYSSVSTPPCVHVYKLSGPDDDPLHKQPRFWASMMEAASCPPDYVPPEIFHFHTRSDVRLYGMIYKPHALQPGKKHPTVLFVYGGPQVQLVNNSFKGIKYLRLNTLASLGYAVVVIDGRGSCQRGLRFEGALKNQMGQVEIEDQVEGLQFVAEKYGFIDLSRVAIHGWSYGGFLSLMGLIHKPQVFKVAIAGAPVTVWMAYDTGYTERYMDVPENNQHGYEAGSVALHVEKLPNEPNRLLILHGFLDENVHFFHTNFLVSQLIRAGKPYQLQIYPNERHSIRCPESGEHYEVTLLHFLQEYL
Regarding B1, the Kd was found to be 173 nM in assay [1], 168 nM in assay [2], 155 nM in assay [5] and 140 nM in assay [6]. For the same molecule, the stoichiometry N in the assay with His6-tev-DPP9, Q86TI2 [3] amounted to 2; with His6-tev-DPP9, Q86TI2 [4], 2.

One may read the Kd as the constant that tells how readily two partners part at equilibrium. A lower Kd goes with higher affinity. Broadly, the stoichiometry N is the number of molecules, sites or subunits per partner or assembly.
